{"source": "the nanobody polyreactivity screen of Harvey et al. (2022)", "data": [{"assay": "yeast display, Sf9 membrane polyspecificity reagent, FACS + sequencing; frameworks hold sequencing errors", "summary_of_the_method": "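Synthetic nanobody libraries on Saccharomyces cerevisiae BJ5465 were galactose-induced for 36–48 hours, stained 1 hour at 4 °C with 10% biotinylated, detergent-solubilized Sf9 membrane reagent and enriched on streptavidin microbeads. FACS then separated cells into low and high (top ~1%) gates by anti-HA (expression) and streptavidin (reagent binding) fluorescence. Genes were colony-PCR amplified, MiSeq 2 × 250 sequenced and CDR-length filtered. A clone's polyreactivity label is that of its gate of origin.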", "values": [{"sequence": "QVQLVESGGGLVQAGGSLRLSCAPSGRTFWSYAMGWYRQAPGKERELVAAISLDDGTTYYADSVKGRFTISRDNAKNTVYLQMNSLKPEDTAVYDCAAEREQGDDGYGPDYGYWGQGTQVTVSS", "polyreactivity (PSR sort gate)": "high polyreactivity"}, {"sequence": "QVQLVESGGGLVQAGGSLRLSCAPSGSIFEINAMGWYRQAPGKERELVAAITGSGGSTHYADSVKGRFTISRDNAKKTVYLEMNSLKPEDTAVYYCAAVQRYQYGYWGQGTQVTVSS", "polyreactivity (PSR sort gate)": "low polyreactivity"}, {"sequence": "QVQLVESGGGLVQAGGSLRLSCAPSGSIFVVNAMGWFRQAPGKEREFVAAITFGGGTTYYADSVKGRITISRDNAKNTVYLQMYSLKPEDTEVYYCNTRTRGYSSYVGGYNYWGQGTQVTVSS", "polyreactivity (PSR sort gate)": "low polyreactivity"}, {"sequence": "QVQLVESGGGLVQAGGSLRLSCAPSGSIFWYYCKGWYRQAPGKERELVAAISSGGSTNYADSVKGRFAISRDNAKNTVYLQMNSLKAEDTAVYYCAVRFTFPRYDYWGQGTQVTVSS", "polyreactivity (PSR sort gate)": "high polyreactivity"}, {"sequence": "QVQLVESGGGLVQAGGSLRLSCAPSGSILWQYAMGWYRQAPGKERELVAAITYSGGSTHYADSVKGRFTISRDNAKNTVYLQMNSLKPEETAVYYCAAGYWYRYAALRYDHWGQGTQVTVSS", "polyreactivity (PSR sort gate)": "low polyreactivity"}, {"sequence": "QVQLVESGGGLVQAGGSLRLSCAPSGSTFDPFAMGWYRQAPGKERELVADITSSDGSTYYADSVKGRFTISRDNAKNTVYFQMNSLKPEVTAVYYCYSDYRYFWTYWGWSIYDYWGQGTQVTVSS", "polyreactivity (PSR sort gate)": "high polyreactivity"}, {"sequence": "QVQLVESGGGLVQAGGSLRLSCAPSGSTFFTYAMGWYRQAPGKERELVASISIGGSTNYADSVKGRFTISRDNAKNTVYLQMNSLIQEDSAVYYCAIRYFTFGVDYEYWGQGTQVTVSS", "polyreactivity (PSR sort gate)": "low polyreactivity"}, {"sequence": "QVQLVESGGGLVQAGGSLRLSCAPSGSTFRGNAMGWYRQAPGKERELVAAITRRGGSTYYADSVKGRFTISRDNAKNTVYLQMNSLKPEDTAVYYCAKVGRETEYAYWGQGTQVTVSS", "polyreactivity (PSR sort gate)": "high polyreactivity"}, {"sequence": "QVQLVESGGGLVQAGGSLRLSCAPSGSTFRRNAMGWSRQAPGKERELVAANSGSGGRTYYADSVKGRITISRDNAKNTVYLQMNSMKPEDTAVYYCAARSTVYEFFYYRGWWEYYYWGQGTQVTVSS", "polyreactivity (PSR sort gate)": "low polyreactivity"}, {"sequence": "QVQLVESGGGLVQAGGSLRLSCAPSGSTFYVNTMGWYRQAPGKERELVAAITATGASTYYADSVKGRFTISRDNAKNTVYVQMNSLKPEDTAVYYCNVRLRIRSGYWGQGTQVTVSS", "polyreactivity (PSR sort gate)": "high polyreactivity"}, {"sequence": "QVQLVESGGGLVQAGGSLRLSCAPSGYIFQAYVMGWYRPAPGKERELVAAITSGGGTYYADSVKGRFTISRDNAKNTVYLQMISLKPEDTAVYYCAARYTQRPRRNYWGQGSQVTVSS", "polyreactivity (PSR sort gate)": "high polyreactivity"}, {"sequence": "QVQLVESGGGLVQAGGSLRLSCAPSGYNFSKYAMGWYRQAPGKERELVAAITSGGGSTYYADSVKGRFTISRDNAKNTVYLQMNSLKPEDTAVYYCNAACRRIVGQTYDYWGQGTQVTVSS", "polyreactivity (PSR sort gate)": "high polyreactivity"}, {"sequence": "QVQLVESGGGLVQAGGSLRLSCAPSGYTFWLYAMGWYRQAPGKERELVAAITWNGGSTYYADSVKGRFTISRDIAKNTVYLQMISLNPEYTAVYYCAAEAIIYLQWFDYWGQGTQVTVSS", "polyreactivity (PSR sort gate)": "low polyreactivity"}, {"sequence": "QVQLVESGGGLVQAGGSLRLSCAPSRSTLNYYAMGWYRQAPGKERELVAAITWSGGSTSYADSVKGRFTISRDNAKNTVYLQMNSLKPEDTAVYYCATDFPTVQLYDTDWLSSDMGYWGQGTQVTVSS", "polyreactivity (PSR sort gate)": "low polyreactivity"}, {"sequence": "QVQLVESGGGLVQAGGSLRLSCAPSVRTFQYYAMGWYRPAPGKERELVAAINQGGGRTYYADSVKGRFTISRDTAKNTVYLQMNSLKPEDTAVYYCAADGLSKFDYWGQGTQVTVSS", "polyreactivity (PSR sort gate)": "low polyreactivity"}, {"sequence": "QVQLVESGGGLVQAGGSLRLSCAPTGFTIGWYAMGWYRQAPGKERELVATISWSGSSTYYADSVKGRFTISRDNAKNTVYLQMNSLKPEDTAVYYCNAVYGRFVVLRYDYWAQGTQVTVSS", "polyreactivity (PSR sort gate)": "high polyreactivity"}, {"sequence": "QVQLVESGGGLVQAGGSLRLSCASSGFIFAYNAMGWYRQAPGKERELVAAISRSGGSTRYADSVKGRFTISRDNAKNTVYLQMNSLIPEDTAVYYCAADWSDYWDWSWYDYWGQGTQVTVSS", "polyreactivity (PSR sort gate)": "high polyreactivity"}, {"sequence": "QVQLVESGGGLVQAGGSLRLSCASSGFIFKRYAMGWYRQAPGKERELVAAITSGGSTHYADSVKGRFTISRDNAKNTVYLQMNSLKPEDTAVYYCATRRYKWGVRYDYWGQGTQVTVSS", "polyreactivity (PSR sort gate)": "high polyreactivity"}, {"sequence": "QVQLVESGGGLVQAGGSLRLSCASSGFTFGVYAMGWYRTAPGKERELVAGITRGGSTNYADSVKGRFTISRDNAKNTVYLQMNSLKPEDTAVYYCAKVSYGYLRSWGRYTRGDYWGQGTQVTVSS", "polyreactivity (PSR sort gate)": "high polyreactivity"}, {"sequence": "QVQLVESGGGLVQAGGSLRLSCASSGFTFPFYAMGWYRQAPGKESELVAAISWSGGSTYYADSVKGRFTISRDNAKNTVYLQMNSLKPEDTAVYYCAAEYISSPLGYDYWGQGTQVTVSS", "polyreactivity (PSR sort gate)": "high polyreactivity"}, {"sequence": "QVQLVESGGGLVQAGGSLRLSCASSGFTFSLYARGWYSQAPGKEMELVAAISQRGGSTYYADSVKGRFTISRDNAKNTDYLQMNSLKPEDTAVYYCNDYAQVSYGTYDYWGQGTQVTVSS", "polyreactivity (PSR sort gate)": "high polyreactivity"}, {"sequence": "QVQLVESGGGLVQAGGSLRLSCASSGGISYYYYAMGWYRQAPGKERELVAAISSDDDTYYADSVKGRFTISRDNAKNTVYLQMNSLKPEDTAVYYCAAEYDVVGPSIYGYLFYYWGQGTQVTVSS", "polyreactivity (PSR sort gate)": "high polyreactivity"}, {"sequence": "QVQLVESGGGLVQAGGSLRLSCASSGGTFGSYAMGWYRHAPGKERELVAAIRSGDRTYYADSVKGRFTISRDNAKNTVYLQMNSLKPEDTAVYYCAAFYHHYYRYDYWGQGTQVTVSS", "polyreactivity (PSR sort gate)": "low polyreactivity"}, {"sequence": "QVQLVESGGGLVQAGGSLRLSCASSGGTFSTYAMGWYRQAPGKERELVAAISSTGGSTYYADSVKGRFTISGDNAKNTVYLQMNSLKPEDTAVYYCAAYYSRGWLLYWDEMYFWGQGTQVTVSS", "polyreactivity (PSR sort gate)": "high polyreactivity"}, {"sequence": "QVQLVESGGGLVQAGGSLRLSCASSGITFGRNTMGWYRQAPGKERELVAAIDSGGNTYADSVKGRFTISRDNAKNTVYLQMNSLKPEDTAVYYCDVDGGEFSSYGYWGQGTQVTVSS", "polyreactivity (PSR sort gate)": "low polyreactivity"}, {"sequence": "QVQLVESGGGLVQAGGSLRLSCASSGITFGVYAMGWYRQAPGKERELVAAISRRGAYTYYADSVKGRFTISRDNGKNTVYLQMNSLKPEDTAVYYCAAYLARRQYDYWGQGTQVTVSS", "polyreactivity (PSR sort gate)": "high polyreactivity"}, {"sequence": "QVQLVESGGGLVQAGGSLRLSCASSGITFRVYAMGWYRQAPGKERELVAGISRGGRTSYADSVKGRFTISRDNAKNTVYLQMNSLKPEDTAVYYCAARQYRHRVKYYYWGQGTQVTVSS", "polyreactivity (PSR sort gate)": "high polyreactivity"}, {"sequence": "QVQLVESGGGLVQAGGSLRLSCASSGITFYVYAMGWYRQAPGKERELVASISWNGGRTYYADSVKGRFTISRDNAKNTVYLQMNSLKPEDTAVYYCAARAYSYWSGLDYWGQGTQVTVSS", "polyreactivity (PSR sort gate)": "high polyreactivity"}, {"sequence": "QVQLVESGGGLVQAGGSLRLSCASSGLIFQYYVKGWYRQAPGKERELVAAISARGGGTYYADSVKGRFTISRDNAKNTVYLQMISLKPEDTAVYYCAADPVYAGPGYDYWGQGTQVTVSS", "polyreactivity (PSR sort gate)": "high polyreactivity"}, {"sequence": "QVQLVESGGGLVQAGGSLRLSCASSGLTFRNYAMGGYRPAPGKERELVAAITVSGGSTYYADSVKGRFTISRDNAKNTVYLQMNSLKPEDTAVYYCAARVIHTTYSRNYYYWGQGTQVTVSS", "polyreactivity (PSR sort gate)": "high polyreactivity"}, {"sequence": "QVQLVESGGGLVQAGGSLRLSCASSGLTFYGNAMVWYRPAPGKERELVAAISSSGGTTYYADSVKGRFTISRDNAKNTVYLQMTSLKPEDTAVYYCAARPSGGYESTRTRDYWGQGTQVTVSS", "polyreactivity (PSR sort gate)": "low polyreactivity"}, {"sequence": "QVQLVESGGGLVQAGGSLRLSCASSGNIFRKYAMAWYRQAPGKERELVAITSGTNTYYADSVKGRFTISRDNAKNTVYVQMNSLKPEDSAVYYCNKSGFRSSHKYDYWGQGTQVTVSS", "polyreactivity (PSR sort gate)": "low polyreactivity"}, {"sequence": "QVQLVESGGGLVQAGGSLRLSCASSGNTFVDYAMGWFRQAPGKETELVAAISDGGSTNYADSVKGRFTISRDNAKNTVDLQMNSLKPEDTEVYYCAKDELYIPGVWPYYEYDYWGQGTQVTVSS", "polyreactivity (PSR sort gate)": "low polyreactivity"}, {"sequence": "QVQLVESGGGLVQAGGSLRLSCASSGRIFKKYAMGWYIQAPGKERELVATISSGGSTYYADSVKGRFTISRDNAKNTVYLQMNSLKREDTAGSYCARREYVRRDYFVTTYDYWGQGTQVTVSS", "polyreactivity (PSR sort gate)": "low polyreactivity"}, {"sequence": "QVQLVESGGGLVQAGGSLRLSCASSGRIFKYNAMGWYRQAPGKERELVAAISSSGARTYYADSVKGRFTISRDNAKNTVYLQMNSLKPEDTAVDYCAAPFTSNRSIRPYGYWGQGTQVTVSS", "polyreactivity (PSR sort gate)": "high polyreactivity"}, {"sequence": "QVQLVESGGGLVQAGGSLRLSCASSGRIFPYYAMGRYRQAPGKERDLVAAITSVGSTNYADSVKGRFTISRDNAKNTVYLQINSLKPEDTAVYYCAAESTEGTSGDYDYWAQGTQVTVSS", "polyreactivity (PSR sort gate)": "low polyreactivity"}, {"sequence": "QVQLVESGGGLVQAGGSLRLSCASSGRIFQYYVKGWYRQAPGKERELVAAITSGGGTKYADSVKGRFTISRDNENNTVYLQMNSLKPEDTAVYYCAAAWFDQYSRYDYWGQGTQVTVSS", "polyreactivity (PSR sort gate)": "low polyreactivity"}, {"sequence": "QVQLVESGGGLVQAGGSLRLSCASSGRIFVFNAMGWYRPAPGKERELVAAINWSGGTTYYADSVKGRFTISRDNAKNTVYLQMNSVNPEDTAVYYCNAYLNRRMGYWGQGTQVTVSS", "polyreactivity (PSR sort gate)": "high polyreactivity"}, {"sequence": "QVQLVESGGGLVQAGGSLRLSCASSGRIFYGYAMVWYRQAPGKERELVAAIRWYGGNTYYADSVKGRFTISRDNAKNTVYLQMNSLKPEDTAVYYCAARAYYARFVMGYWGQGTQVSVSS", "polyreactivity (PSR sort gate)": "high polyreactivity"}, {"sequence": "QVQLVESGGGLVQAGGSLRLSCASSGRTFGLYDMGWYRQAPGKERELVAGITRRGGRTYYADSVKGRFTISRDNAKNPVELLMHCRKPEDTAVYYCNKVVTRWNQRWRYSEGNYWGQGTQVTVSS", "polyreactivity (PSR sort gate)": "high polyreactivity"}, {"sequence": "QVQLVESGGGLVQAGGSLRLSCASSGRTFPAYAMGWYRPAPGKERELVAAISSSGSRTYYAASVKGRFTISRDNAKNTVYLQMNRLIPEDTAVYYCAARGGRRQKVNRDDYWGQVTQVTVSS", "polyreactivity (PSR sort gate)": "high polyreactivity"}]}]}
